According to US20220163515:
pKd: −log10 of the molar value.

How the values were obtained:
[1] = molecular target: Pumby8_KD_3 (synthetic (from Homo sapiens Pumilio unit 6)) (UniProt Q14671); assay: FP; settings: 25 mM Tris-HCl pH 7.5, 0.5 mM EDTA, 50 mM KCl, 0.1 mg/mL BSA; active-fraction corrected
[2] = molecular target: Pumby8_KD_4 (synthetic (from Homo sapiens Pumilio unit 6)) (UniProt Q14671); assay: FP; settings: 25 mM Tris-HCl pH 7.5, 0.5 mM EDTA, 50 mM KCl, 0.1 mg/mL BSA; active-fraction corrected
Pumby8_KD_4 (synthetic (from Homo sapiens Pumilio unit 6)), sequence (Q14671 1028-1063): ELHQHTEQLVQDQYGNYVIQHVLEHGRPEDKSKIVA

Pumby8_KD_3 (synthetic (from Homo sapiens Pumilio unit 6)), sequence (Q14671 1028-1063): as above

Sequence	pKd [1]	pKd [2]
CCAGAAUUGUAGAUAUUCG [KD_3 cognate]	8.87	
CCAGAAUCAUGUCAGUUCG [KD_2/KD_4 cognate]		9.36
